As a reminder, the Km is the concentration of substrate that gives half-maximal velocity.

Substrate in the data set: Nc1ccc(C(=O)NCC(=O)O)cc1
The experiment in a line: cells, lysate or membranes named.

B1: Solute carrier family 22 member 6 (Rattus norvegicus) (protein)
chain: MAFNDLLKQVGGVGRFQLIQVTMVVAPLLLMASHNTLQNFTAAIPPHHCRPPANANLSKDGGLEAWLPLDKQGQPESCLRFTSPQWGPPFYNGTEANGTRVTEPCIDGWVYDNSTFPSTIVTEWNLVCSHRAFRQLAQSLYMVGVLLGAMVFGYLADRLGRRKVLILNYLQTAVSGTCAAYAPNYTVYCVFRLLSGMSLASIAINCMTLNVEWMPIHTRAYVGTLIGYVYSLGQFLLAGIAYAVPHWRHLQLVVSVPFFIAFIYSWFFIESARWYSSSGRLDLTLRALQRVARINGKQEEGAKLSIEVLRTSLQKELTLSKGQASAMELLRCPTLRHLFLCLSMLWFATSFAYYGLVMDLQGFGVSMYLIQVIFGAVDLPAKFVCFLVINSMGRRPAQMASLLLAGICILVNGIIPKSHTIIRTSLAVLGKGCLASSFNCIFLYTGELYPTVIRQTGLGMGSTMARVGSIVSPLVSMTAEFYPSMPLFIFGAVPVVASAVTALLPETLGQPLPDTVQDLKSRSRGKQNQQQQEQQKQMMPLQASTQEKNGL
As to B1, the Km was determined as 43.2 µM.

Values taken from ChEMBL document CHEMBL2074186.
